For assay [1], the target named is T1, peptide GPPGPQG (region corresponding to amino acids 769 to 775 of human type 2 collagen) (human).
T1 construct: The immunogen carried an added N-terminal cysteine and was conjugated to BSA; The DELFIA screen was run as for 6G4
T1 peptide: GPPGPQG
Put plainly: property stated for the prepared monoclonal antibody.

For assay [2], the target named is T2, peptide GEPGDDAPS (region corresponding to amino acids 757 to 765 of human type 2 collagen) (human).
T2 construct: The immunogen carried an added C-terminal cysteine and was conjugated to KLH
T2 peptide: GEPGDDAPS
Described as above.

B1: 2E6 antibody (monoclonal antibody produced by hybridoma TAG-2E6) (antibody, V domains shown)
VH: QVTLKESGPGILQPSQTLSLTCSFSGFSLSTYGMGVGWIRQPSGKGLEWLAHIWWNDNKYYNTTLKSRLTISKDTSNKQVFLKIASVDTADTATYYCARIERWDPWFAYWGQGTLVTVSA
VL: DVVMTQTPLSLPVSLGDQASISCRSSQSLVYSNGNTYFHWYLQKPGQSPKLLIYKVSNRFSGVPDRFSGSGSGTDFTLKISRVEAEDLGVYFCSQSTHVPLTFGAGTKLELKR
notes: Mouse monoclonal IgG2b (k), 150 kDa; also called XL665-labeled 2E6 antibody; FERM ABP-10482
As for B1, the binding result in assay [1] is listed as “binds”.

B2: 6G4 antibody (monoclonal antibody produced by hybridoma TAG-6G4) (antibody, IgG1, V domains shown)
VH: EVQLVESGGSLVQPGGSLKLSCAASGFTFNNYGMSWVRQIPDKRLELVATITGNGHSTYYPVSVRGRFTISRDNAKNTLYLQMSSLKSEDTAMYYCVRGYSNFAFWGQGTTLTVSS
VL: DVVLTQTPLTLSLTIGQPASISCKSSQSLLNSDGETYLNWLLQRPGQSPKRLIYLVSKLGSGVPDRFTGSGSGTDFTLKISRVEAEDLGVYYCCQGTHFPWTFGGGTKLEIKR
notes: Mouse monoclonal IgG1 (k), 150 kDa; also called cryptate-labeled 6G4 antibody; FERM ABP-10483
For the molecule B2, the binding result in assay [2] is given as “binds”.
